Values belong to the binder of their own block, whether it stands above or below them.
Assays:
GDF8 [1] = target: T1, GDF8 (UniProt O14793 267-375); assay: SPR (Biacore), Fc fusion captured by anti-Fc antibody
T1 construct: also called myostatin
T1 sequence (looked up): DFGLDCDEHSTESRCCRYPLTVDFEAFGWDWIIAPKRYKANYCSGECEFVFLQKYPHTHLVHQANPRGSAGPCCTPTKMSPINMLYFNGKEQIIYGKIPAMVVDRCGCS

activin AC = target: T2, activin AC (UniProt P08476 311-426; P55103 237-352); assay: as above
T2 construct: Heterodimer of beta A and beta C subunits
T2 sequence (looked up) 1: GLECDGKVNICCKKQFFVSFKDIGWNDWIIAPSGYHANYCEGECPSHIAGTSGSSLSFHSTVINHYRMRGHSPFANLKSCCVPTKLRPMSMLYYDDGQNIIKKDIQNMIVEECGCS
T2 sequence (looked up) 2: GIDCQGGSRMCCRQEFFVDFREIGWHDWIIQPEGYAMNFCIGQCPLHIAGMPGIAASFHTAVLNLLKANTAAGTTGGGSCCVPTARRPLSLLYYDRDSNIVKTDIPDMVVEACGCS

BMP6 [2] = target: T3, BMP6 (UniProt P22004 375-513, limits assumed); assay: as above
T3 sequence (looked up): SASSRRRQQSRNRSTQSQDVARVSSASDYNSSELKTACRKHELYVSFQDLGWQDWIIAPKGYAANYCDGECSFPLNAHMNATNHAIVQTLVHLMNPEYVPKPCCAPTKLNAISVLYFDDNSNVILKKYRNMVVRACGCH

activin C = target: T4, activin C (UniProt P55103 237-352); assay: as above
T4 sequence (looked up): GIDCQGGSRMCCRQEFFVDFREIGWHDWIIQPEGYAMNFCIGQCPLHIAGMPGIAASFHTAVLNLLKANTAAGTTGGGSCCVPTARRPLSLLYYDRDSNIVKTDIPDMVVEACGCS

activin B [3] = target: T5, activin B (UniProt P09529 293-407); assay: as above
T5 sequence (looked up): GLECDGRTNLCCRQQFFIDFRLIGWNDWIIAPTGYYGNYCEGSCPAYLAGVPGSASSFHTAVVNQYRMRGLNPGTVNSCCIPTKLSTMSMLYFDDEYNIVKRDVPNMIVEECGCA

BMP9 [4] = target: T6, BMP9 (UniProt Q9UK05 320-429); assay: as above
T6 construct: also called GDF2
T6 sequence (looked up): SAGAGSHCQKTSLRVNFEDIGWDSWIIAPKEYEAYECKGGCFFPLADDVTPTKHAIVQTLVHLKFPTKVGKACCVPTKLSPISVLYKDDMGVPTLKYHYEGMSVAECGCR

BMP5 = target: T7, BMP5 (UniProt P22003 317-454, limits assumed); assay: as above
T7 sequence (looked up): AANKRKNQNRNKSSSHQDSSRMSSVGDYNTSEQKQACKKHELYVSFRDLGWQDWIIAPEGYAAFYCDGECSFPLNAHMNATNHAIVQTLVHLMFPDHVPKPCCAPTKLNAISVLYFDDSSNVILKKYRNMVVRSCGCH

activin A [5] = target: T8, activin A (UniProt P08476 311-426); assay: as above
T8 sequence (looked up): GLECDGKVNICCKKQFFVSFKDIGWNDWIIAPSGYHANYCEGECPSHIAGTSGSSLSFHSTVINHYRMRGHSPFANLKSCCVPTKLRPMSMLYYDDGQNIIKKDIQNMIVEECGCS

BMP10 [6] = target: T9, BMP10 (UniProt O95393 317-424); assay: as above
T9 sequence (looked up): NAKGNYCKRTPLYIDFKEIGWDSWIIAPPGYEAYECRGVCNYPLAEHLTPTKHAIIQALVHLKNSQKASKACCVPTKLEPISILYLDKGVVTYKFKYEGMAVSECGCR

GDF3 [7] = target: T10, GDF3 (UniProt Q9NR23 251-364); assay: as above
T10 sequence (looked up): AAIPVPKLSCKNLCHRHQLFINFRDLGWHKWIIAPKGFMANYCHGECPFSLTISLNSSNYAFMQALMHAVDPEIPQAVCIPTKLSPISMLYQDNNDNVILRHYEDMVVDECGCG

GDF11 [8] = target: T11, GDF11 (UniProt O95390 299-407); assay: as above
T11 construct: also called BMP11
T11 sequence (looked up): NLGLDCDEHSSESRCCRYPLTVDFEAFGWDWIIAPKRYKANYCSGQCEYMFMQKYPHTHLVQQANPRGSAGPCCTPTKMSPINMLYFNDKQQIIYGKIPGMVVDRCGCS

GDF8 [9] = target: T1, GDF8; assay: SPR (Biacore), Fc fusion captured by anti-Fc antibody, 37 C
BMP6 [10] = target: T3, BMP6; assay: as above
activin B [11] = target: T5, activin B; assay: as above
BMP9 [12] = target: T6, BMP9; assay: as above
activin A [13] = target: T8, activin A; assay: as above
BMP10 [14] = target: T9, BMP10; assay: as above
GDF3 [15] = target: T10, GDF3; assay: as above
GDF11 [16] = target: T11, GDF11; assay: as above
activin A [17] = target: T8, activin A; assay: as above; remark: listed apart in the source
BMP10 [18] = target: T9, BMP10; assay: as above; remark: listed apart in the source
GDF11 [19] = target: T11, GDF11; assay: not described

Kd (GDF8 [1]): 0.27 nM
koff (GDF8 [1]): 0.001 s⁻¹
kon (GDF8 [1]): 3.7e+06 M⁻¹ s⁻¹
Kd (activin AC): 0.22 nM
koff (activin AC): 0.00057 s⁻¹
kon (activin AC): 2.6e+06 M⁻¹ s⁻¹
Kd (BMP6 [2]): 5.3 nM
koff (BMP6 [2]): 0.0063 s⁻¹
kon (BMP6 [2]): 1.2e+06 M⁻¹ s⁻¹
Kd (activin C): 6.9 nM
koff (activin C): 0.0024 s⁻¹
kon (activin C): 350000 M⁻¹ s⁻¹
Kd (activin B [3]): 0.017 nM
koff (activin B [3]): 0.0002 s⁻¹
kon (activin B [3]): 1.2e+07 M⁻¹ s⁻¹
Kd (BMP9 [4]): > 1.4 nM
Kd (BMP5): 57 nM
koff (BMP5): 0.0085 s⁻¹
kon (BMP5): 150000 M⁻¹ s⁻¹
Kd (activin A [5]): 0.043 nM
koff (activin A [5]): 0.0019 s⁻¹
kon (activin A [5]): 4.4e+07 M⁻¹ s⁻¹
Kd (BMP10 [6]): 0.19 nM
koff (BMP10 [6]): 0.0028 s⁻¹
kon (BMP10 [6]): 1.5e+07 M⁻¹ s⁻¹
Kd (GDF3 [7]): 4.5 nM
koff (GDF3 [7]): 0.01 s⁻¹
kon (GDF3 [7]): 2.3e+06 M⁻¹ s⁻¹
Kd (GDF11 [8]): 0.008 nM
koff (GDF11 [8]): 0.00075 s⁻¹
kon (GDF11 [8]): 9.5e+07 M⁻¹ s⁻¹
B1: ActRIIB-Fc:ALK7-Fc heterodimer (Fc fusion)
chain 1: GRGEAETRECIYYNANWELERTNQSGLERCEGEQDKRLHCYASWRNSSGTIELVKKGCWLDDFNCYDRQECVATEENPQVYFCCCEGNFCNERFTHLPEAGGPEVTYEPPPTAPT
chain 2: ELSPGLKCVCLLCDSSNFTCQTEGACWASVMLTNGKEQVIKSCVSLPELNAQVFCHSSNNVTKTECCFTDFCNNITLHLPTASPNAPKLGPME

Kd (GDF8 [9]): 0.15 nM
koff (GDF8 [9]): 0.0005 s⁻¹
kon (GDF8 [9]): 3.4e+06 M⁻¹ s⁻¹
Kd (BMP6 [10]): 0.056 nM
koff (BMP6 [10]): 0.018 s⁻¹
kon (BMP6 [10]): 3.3e+08 M⁻¹ s⁻¹
Kd (activin B [11]): 0.025 nM
koff (activin B [11]): 0.00021 s⁻¹
kon (activin B [11]): 8.3e+06 M⁻¹ s⁻¹
Kd (BMP9 [12]): > 2.8 nM
Kd (activin A [13]): 0.17 nM
koff (activin A [13]): 0.0015 s⁻¹
kon (activin A [13]): 8.8e+06 M⁻¹ s⁻¹
Kd (BMP10 [14]): 0.042 nM
koff (BMP10 [14]): 0.002 s⁻¹
kon (BMP10 [14]): 4.8e+07 M⁻¹ s⁻¹
Kd (GDF3 [15]): 10 nM
koff (GDF3 [15]): 0.0059 s⁻¹
kon (GDF3 [15]): 580000 M⁻¹ s⁻¹
Kd (GDF11 [16]): 0.009 nM
koff (GDF11 [16]): 0.00036 s⁻¹
kon (GDF11 [16]): 4e+07 M⁻¹ s⁻¹
fold faster off-rate than ActRIIB-Fc homodimer (activin A [17]): ~10 fold
fold faster off-rate than ActRIIB-Fc homodimer (BMP10 [18]): ~10 fold
B2: ActRIIB-Fc:ActRIIB(L79E)-Fc heterodimer (Fc fusion)
chain 1: GRGEAETRECIYYNANWELERTNQSGLERCEGEQDKRLHCYASWRNSSGTIELVKKGCWLDDFNCYDRQECVATEENPQVYFCCCEGNFCNERFTHLPEAGGPEVTYEPPPTAPT
chain 2: GRGEAETRECIYYNANWELERTNQSGLERCEGEQDKRLHCYASWRNSSGTIELVKKGCWEDDFNCYDRQECVATEENPQVYFCCCEGNFCNERFTHLPEAGGPEVTYEPPPTAPT

binding result (GDF11 [19]): binds
B3: ActRIIB-Fc with C-terminal tail (A64 background) (Fc fusion)
chain: SGRGEAETRECIYYNANWELERTNQSGLERCEGEQDKRLHCYASWANSSGTIELVKKGCWLDDFNCYDRQECVATEENPQVYFCCCEGNFCNERFTHLPEAGGPEVTYEPPPTAPTGGGTHTCPPCPAPELLGGPSVFLFPPKPKDTLMISRTPEVTCVVVDVSHEDPEVKFNWYVDGVEVHNAKTKPREEQYNSTYRVVSVLTVLHQDWLNGKEYKCKVSNKALPVPIEKTISKAKGQPREPQVYTLPPSREEMTKNQVSLTCLVKGFYPSDIAVEWESNGQPENNYKTTPPVLDSDGSFFLYSKLTVDKSRWQQGNVFSCSVMHEALHNHYTQKSLSLSPGK
notes: Alanine at position 64; also called preferred version of ActRIIB-Fc

Source: patent publication US20240197902A1 (ACCELERON PHARMA, published 2024)
